B1: unnamed (protein)
chain: MNFPRASRLMQAAVLGGLMAVSAAATAQTNPYARGPNPTAASLEASAGPFTVRSFTVSRPSGYGAGTVYYPTNAGGTVGAIAIVPGYTARQSSIKWWGPRLASHGFVVITIDTNSTLDQPSSRSSQQMAALRQVASLNGTSSSPIYGVKTARMVMGWSMGGGGSLISAANNPSLKAAAPQAPWDSSTNFSSVTVPTLIFACENDSIAPVNSSALPIYDSMSRNAKQFLEINGGSHSCANSGNSNQALIGKKGVAWMKRFMDNDTRYSTFACENPNSTRVSDFRTANCS
B2: unnamed (protein)
chain: MQTTVTTMLLASVALAACAGGGSTPLPLPQQQPPQQEPPPPPVPLASRAACEALKDGNGDMVWPNAATVVEVAAWRDAAPATASAAALPEHCEVSGAIAKRTGIDGYPYEIKFRLRMPAEWNGRFFMEGGSGTNGSLSAATGSIGGGQIASALSRNFATIATDGGHDNAVNDNPDALGTVAFGLDPQARLDMGYNSYDQVTQAGKAAVARFYGRAADKSYFIGCSEGGREGMMLSQRFPSHYDGIVAGAPGYQLPKAGISGAWTTQSLAPAAVGLDAQGVPLINKSFSDADLHLLSQAILGTCDALDGLADGIVDNYRACQAAFDPATAANPANGQALQCVGAKTADCLSPVQVTAIKRAMAGPVNSAGTPLYNRWAWDAGMSGLSGTTYNQGWRSWWLGSFNSSANNAQRVSGFSARSWLVDFATPPEPMPMTQVAARMMKFDFDIDPLKIWATSGQFTQSSMDWHGATSTDLAAFRDRGGKMILYHGMSDAAFSALDTADYYERLGAAMPGAAGFARLFLVPGMNHCSGGPGTDRFDMLTPLVAWVERGEAPDQISAWSGTPGYFGVAARTRPLCPYPQIARYKGSGDINTEANFACAAPP
B3: unnamed (protein)
chain: MAVMTPRRERSSLLSRALQVTAAAATALVTVSLAAPAHAANPYARGPNPTDALLEASSGPFSVSEENVSRLSASGFGGGIYYPRENNTYGAVAISPGYTGTEASIAWLGERIASHGFVVITIDTITTLDQPDSRAEQLNAALNHMINRASSTVRSRIDSSRLAVMGHSMGGGGTLRLASQRPDLKAAIPLTPWHLNKNWSSVTVPTLIIGADLDTIAPVATHAKPFYNSLPSSISKAYLELDGATHFAPNIPNKIIGKYSVAWLKRFVDNDTRYTQFLCPGPRDGLFGEVEYRSTCPF
B4: unnamed (protein)
chain: MDGVLWRVRTAALMAALLALAAWALWASPSVEAQSNPYQRGPNPTRSALTADGPFSVATYTVSRLSVSGFGGGVIYYPTGTSLTFGGIAMSPGYTADASSLAWLGRRLASHGFVVLVINTNSRFDYPDSRASQLSAALNYLRTSSPSAVRARLDNARLAVAGHSMGGGGTLRIAEQNPSLKAAVPLTPWHTDKTFNTSVPVLIVGAEADTVAPVSQHAIPFYQNLPSTTPKVYVELDNASHFAPNSNNAAISVYTISWMKLWVDNDTRYRQFLCNVNDPALSFDRTNNRHCQ

substrate: BHET; experiment: Proxy for plastic degradation [kcat] (s⁻¹); conditions: pH 7

Protein	Proxy for plastic degradation
B1	0.8
B3	0.03
B4	0.1

substrate: pNP-C2; pNP-C4; pNP-C6; pNP-C8; experiment: Proxy for plastic degradation [kcat] (s⁻¹); conditions: pH 7

Protein	Proxy for plastic degradation
B1	0.005

substrate: hcPET; experiment: Proxy for plastic degradation [Released monomer concentration (HPLC/LC-MS) (MHET+TPA)]; conditions: pH 9

Protein	Proxy for plastic degradation
B1	0.01 mM
B3	0.001 mM
B4	0.001 mM

substrate: PET; experiment: Proxy for plastic degradation [Released monomer concentration (HPLC/LC-MS) (TPA+MHET+BHET)]; conditions: 0 h

Protein	Proxy for plastic degradation
B1	0 mM

same assay, conditions: pH 7

Protein	Proxy for plastic degradation
B1	0.32 mM
B3	0.003 mM
B4	0.05 mM

same assay, conditions: pH 9; 20 °C

Protein	Proxy for plastic degradation
B1	0.001 mM
B3	0.0001 mM
B4	0.0005 mM

same assay, conditions: pH 9; 30 °C

Protein	Proxy for plastic degradation
B1	0.01 mM
B3	0.0001 mM
B4	0.01 mM

same assay, conditions: pH 9; 35 °C

Protein	Proxy for plastic degradation
B1	0.02 mM
B3	0.0001 mM
B4	0.01 mM

same assay, conditions: pH 9; 40 °C

Protein	Proxy for plastic degradation
B1	0.03 mM
B3	0.001 mM
B4	0.15 mM

same assay, conditions: pH 9; 50 °C

Protein	Proxy for plastic degradation
B1	0.005 mM
B3	0.009 mM
B4	1.2 mM

same assay, conditions: pH 9; 60 °C

Protein	Proxy for plastic degradation
B1	0.0001 mM
B3	0.015 mM
B4	3.5 mM

same assay, conditions: pH 9; 70 °C

Protein	Proxy for plastic degradation
B1	0.0001 mM
B3	0.01 mM
B4	2 mM

same assay, conditions: pH 9; 80 °C

Protein	Proxy for plastic degradation
B1	0.0001 mM
B3	0.001 mM

substrate: MHET; experiment: not given; conditions: pH 7; 30 °C; part of the chain shown

Protein	Km	kcat	kcat/Km
B2	7.3 µM	31 s⁻¹	4.25e+06 M⁻¹ s⁻¹
